The values that follow come from publication PMC3969020.

Substrate in the data set: OCc1ccccc1
Kind of data set: steady-state kinetics. The conditions noted are these: NAD+; catalytic zinc; 25.0 °C. The data set is classed as biochemical, Equus caballus.

B1: Horse liver alcohol dehydrogenase (ADH), E isoenzyme (Equus caballus; V208A) (protein)
chain: STAGKVIKCKAAVLWEEKKPFSIEEVEVAPPKAHEVRIKMVATGICRSDDHVVSGTLVTPLPVIAGHEAAGIVESIGEGVTTVRPGDKVIPLFTPQCGKCRVCKHPEGNFCLKNDLSMPRGTMQDGTSRFTCRGKPIHHFLGTSTFSQYTVVDEISVAKIDAASPLEKVCLIGCGFSTGYGSAVKVAKVTQGSTCAVFGLGGVGLSAIMGCKAAGAARIIGVDINKDKFAKAKEVGATECVNPQDYKKPIQEVLTEMSNGGVDFSFEVIGRLDTMVTALSCCQEAYGVSVIVGVPPDSQNLSMNPMLLLSGRTWKGAIFGGFKSKDSVPKLVADFMAKKFALDPLITHVLPFEKINEGFDLLRSGESIRTILTF
As usually defined, the Km is the concentration of substrate that gives half-maximal velocity. For the protein B1, the Km amounted to 13 ± 1 µM.

B2: Horse liver alcohol dehydrogenase (ADH), E isoenzyme (Equus caballus) (protein)
chain: STAGKVIKCKAAVLWEEKKPFSIEEVEVAPPKAHEVRIKMVATGICRSDDHVVSGTLVTPLPVIAGHEAAGIVESIGEGVTTVRPGDKVIPLFTPQCGKCRVCKHPEGNFCLKNDLSMPRGTMQDGTSRFTCRGKPIHHFLGTSTFSQYTVVDEISVAKIDAASPLEKVCLIGCGFSTGYGSAVKVAKVTQGSTCAVFGLGGVGLSVIMGCKAAGAARIIGVDINKDKFAKAKEVGATECVNPQDYKKPIQEVLTEMSNGGVDFSFEVIGRLDTMVTALSCCQEAYGVSVIVGVPPDSQNLSMNPMLLLSGRTWKGAIFGGFKSKDSVPKLVADFMAKKFALDPLITHVLPFEKINEGFDLLRSGESIRTILTF
As for B2, the Km was 14 ± 1 µM.
